From the supplement of paper PMC9112550, “Optimization of the antimicrobial peptide Bac7 by deep mutational scanning” (BMC Biology, 2022)

system: Escherichia coli TOP10; assay: shrunken log2 fold change of peptide-encoding DNA abundance (4.5 h post-induction vs induction); higher = less antimicrobial activity (less host growth inhibition); conditions: time post-induction: 4.5 h; library: site-saturation at positions 5, 18, 19, 20
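Also: peptides expressed intracellularly from a pBAD plasmid library in pooled LB shake-flask culture, induced with 0.3% L-arabinose, DNA abundance read by NGS, three biological replicates, DESeq2 with apeglm shrinkage.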

Sequence | shrunken log2 fold change
RRIRQRPPRLPRPRPRPGVDPRP | 0.244
RRIRARPPRLPRPRPRPETEPRP | 1.39
RRIRERPPRLPRPRPRPACSPRP | 0.115
RRIRSRPPRLPRPRPRPTERPRP | 0.142
RRIRSRPPRLPRPRPRPPHTPRP | 0.159
RRIRARPPRLPRPRPRPKKRPRP | 0.626
RRIRMRPPRLPRPRPRPVCYPRP | -0.21
RRIRLRPPRLPRPRPRPMEIPRP | -0.00427
RRIRHRPPRLPRPRPRPKFRPRP | -0.317
RRIRLRPPRLPRPRPRPCKVPRP | 0.00893
RRIRIRPPRLPRPRPRPSMFPRP | -0.801
RRIRWRPPRLPRPRPRPHHFPRP | -0.0138
RRIRKRPPRLPRPRPRPPVFPRP | -0.00134
RRIRKRPPRLPRPRPRPTANPRP | 0.863
RRIRHRPPRLPRPRPRPENNPRP | -0.304
RRIRQRPPRLPRPRPRPLWDPRP | -0.0887
RRIRERPPRLPRPRPRPCNSPRP | 0.00408
RRIRQRPPRLPRPRPRPSKPPRP | -0.231
RRIRNRPPRLPRPRPRPKAHPRP | 0.18
RRIRHRPPRLPRPRPRPTMEPRP | -0.0987
RRIRSRPPRLPRPRPRPSFWPRP | 0.079
RRIRERPPRLPRPRPRPEKYPRP | -0.534
RRIRLRPPRLPRPRPRPGYFPRP | -0.347
RRIRPRPPRLPRPRPRPQFGPRP | -0.0476
RRIRIRPPRLPRPRPRPWPIPRP | -0.0934

Sequence | shrunken log2 fold change
RRIRERPPRLPRPRPRPAITPRP | -0.401
RRIRHRPPRLPRPRPRPIMTPRP | -0.895
RRIRDRPPRLPRPRPRPMGIPRP | 0.0303
RRIRTRPPRLPRPRPRPLCKPRP | -0.257
RRIRARPPRLPRPRPRPGFQPRP | 0.092
RRIRTRPPRLPRPRPRPLTGPRP | -0.0139
RRIRFRPPRLPRPRPRPAPCPRP | 0.294
RRIRGRPPRLPRPRPRPVHEPRP | 0.434
RRIRTRPPRLPRPRPRPCCVPRP | -0.363
RRIRQRPPRLPRPRPRPAGLPRP | -0.158
RRIRPRPPRLPRPRPRPLRKPRP | 0.319
RRIRYRPPRLPRPRPRPCAGPRP | -0.0602
RRIRTRPPRLPRPRPRPYMIPRP | -0.478
RRIRYRPPRLPRPRPRPMISPRP | -0.126
RRIRERPPRLPRPRPRPGGHPRP | 0.0363
RRIRLRPPRLPRPRPRPYHRPRP | 0.0373
RRIRMRPPRLPRPRPRPIIAPRP | 0.0852
RRIRMRPPRLPRPRPRPIVHPRP | -0.289
RRIRTRPPRLPRPRPRPCEHPRP | 0.00673
RRIRMRPPRLPRPRPRPMYYPRP | -0.339
RRIRGRPPRLPRPRPRPLTGPRP | 0.71
RRIRIRPPRLPRPRPRPFRRPRP | 0.017
RRIRTRPPRLPRPRPRPPSIPRP | 0.114
RRIRVRPPRLPRPRPRPDRPPRP | -0.109
RRIRQRPPRLPRPRPRPRNIPRP | -0.0833

Sequence | shrunken log2 fold change
RRIRVRPPRLPRPRPRPMSMPRP | -0.323
RRIRIRPPRLPRPRPRPALVPRP | 0.228
RRIRIRPPRLPRPRPRPTIMPRP | -0.745
RRIRARPPRLPRPRPRPLLSPRP | 0.367
RRIRSRPPRLPRPRPRPKFTPRP | -0.436
RRIRHRPPRLPRPRPRPTRMPRP | 0.237
RRIRFRPPRLPRPRPRPYLMPRP | -0.687
RRIRERPPRLPRPRPRPSALPRP | -0.373
RRIRDRPPRLPRPRPRPDEHPRP | 0.0279
RRIRERPPRLPRPRPRPAYEPRP | -0.00975
RRIRDRPPRLPRPRPRPCLFPRP | 0.076
RRIRDRPPRLPRPRPRPHRRPRP | -0.247
RRIRVRPPRLPRPRPRPMTVPRP | 0.116
RRIRVRPPRLPRPRPRPDGSPRP | -0.0225
RRIRKRPPRLPRPRPRPFKAPRP | -0.111
RRIRRRPPRLPRPRPRPAVMPRP | 0.0975
RRIRIRPPRLPRPRPRPNPWPRP | -0.119
RRIRCRPPRLPRPRPRPDREPRP | 0.0186
RRIRLRPPRLPRPRPRPDAAPRP | 2.66
RRIRARPPRLPRPRPRPRVIPRP | -0.0156
RRIRARPPRLPRPRPRPTKVPRP | 0.339
RRIRFRPPRLPRPRPRPNLNPRP | -0.504
RRIRARPPRLPRPRPRPVFAPRP | 0.561
RRIRCRPPRLPRPRPRPCMKPRP | -0.368
RRIRVRPPRLPRPRPRPCRMPRP | -0.0641

Sequence | shrunken log2 fold change
RRIRLRPPRLPRPRPRPNACPRP | 0.127
RRIRRRPPRLPRPRPRPLPTPRP | 0.729
RRIRDRPPRLPRPRPRPTCKPRP | 0.0657
RRIRKRPPRLPRPRPRPPLDPRP | 0.809
RRIRIRPPRLPRPRPRPWYAPRP | -0.644
RRIRSRPPRLPRPRPRPEIYPRP | -0.295
RRIRWRPPRLPRPRPRPRCKPRP | 0.33
RRIRTRPPRLPRPRPRPDKPPRP | 0.0877
RRIRLRPPRLPRPRPRPEIKPRP | -0.12
RRIRQRPPRLPRPRPRPFMIPRP | 0.0993
RRIRCRPPRLPRPRPRPCWKPRP | -0.174
RRIRWRPPRLPRPRPRPILEPRP | -0.548
RRIRARPPRLPRPRPRPTNFPRP | -0.0105
RRIRMRPPRLPRPRPRPDVHPRP | 0.109
RRIRTRPPRLPRPRPRPELCPRP | -0.101
RRIRGRPPRLPRPRPRPQGWPRP | 1.04
RRIRHRPPRLPRPRPRPDAIPRP | -0.025
RRIRLRPPRLPRPRPRPPSAPRP | 0.654
RRIRARPPRLPRPRPRPSSLPRP | 0.00294
RRIRFRPPRLPRPRPRPQLCPRP | -0.0465
RRIRERPPRLPRPRPRPRWNPRP | -0.0995
RRIRLRPPRLPRPRPRPTEVPRP | -0.126
RRIRNRPPRLPRPRPRPRYPPRP | -0.121
RRIRCRPPRLPRPRPRPVMLPRP | -0.433
RRIRSRPPRLPRPRPRPICSPRP | 0.119

Sequence | shrunken log2 fold change
RRIRYRPPRLPRPRPRPFAWPRP | -0.0365
RRIRERPPRLPRPRPRPLMNPRP | -0.336
RRIRARPPRLPRPRPRPGCYPRP | -0.00374
RRIRGRPPRLPRPRPRPCYDPRP | 0.156
RRIRQRPPRLPRPRPRPPPLPRP | 0.977
RRIRGRPPRLPRPRPRPRSAPRP | 1.31
RRIRARPPRLPRPRPRPVWYPRP | -0.395
RRIRLRPPRLPRPRPRPWVVPRP | 0.0937
RRIRKRPPRLPRPRPRPICRPRP | 0.0069
RRIRTRPPRLPRPRPRPHLQPRP | -0.321
RRIRYRPPRLPRPRPRPHNGPRP | -0.0705
RRIRVRPPRLPRPRPRPYDDPRP | -0.000921
RRIRGRPPRLPRPRPRPMMAPRP | 1.38
RRIRQRPPRLPRPRPRPDLHPRP | 0.00152
RRIRPRPPRLPRPRPRPIGHPRP | -0.0228
RRIRYRPPRLPRPRPRPEMMPRP | -0.0745
RRIRRRPPRLPRPRPRPWQIPRP | 0.0297
RRIRLRPPRLPRPRPRPFFAPRP | 0.169
RRIRHRPPRLPRPRPRPVRPPRP | 0.365
RRIRMRPPRLPRPRPRPFEDPRP | 0.2
RRIRPRPPRLPRPRPRPMWWPRP | 0.189
RRIRRRPPRLPRPRPRPNRGPRP | -0.0468
RRIRIRPPRLPRPRPRPGESPRP | -0.0125
RRIRHRPPRLPRPRPRPLSRPRP | 0.172
RRIRSRPPRLPRPRPRPIAVPRP | 0.22

Sequence | shrunken log2 fold change
RRIRIRPPRLPRPRPRPSIQPRP | -0.252
RRIRFRPPRLPRPRPRPCMDPRP | -0.336
RRIRKRPPRLPRPRPRPHKEPRP | -0.0849
RRIRWRPPRLPRPRPRPDKNPRP | 0.142
RRIRKRPPRLPRPRPRPTTHPRP | 0.495
RRIRERPPRLPRPRPRPRQFPRP | -0.174
RRIRCRPPRLPRPRPRPSVHPRP | -0.575
RRIRMRPPRLPRPRPRPPMFPRP | 0.225
RRIRYRPPRLPRPRPRPVWMPRP | -0.283
RRIRMRPPRLPRPRPRPYAIPRP | -0.0168
RRIRMRPPRLPRPRPRPNHHPRP | -0.592
RRIRTRPPRLPRPRPRPLWPPRP | 0.216
RRIRVRPPRLPRPRPRPWAFPRP | -0.189
RRIRDRPPRLPRPRPRPVPPPRP | 0.453
RRIRWRPPRLPRPRPRPTIPPRP | -0.109
RRIRSRPPRLPRPRPRPQGVPRP | 0.225
RRIRFRPPRLPRPRPRPWDYPRP | -0.387
RRIRIRPPRLPRPRPRPMPSPRP | -0.0227
RRIRIRPPRLPRPRPRPGNHPRP | -0.227
RRIRGRPPRLPRPRPRPFQFPRP | 0.00963
RRIRHRPPRLPRPRPRPDEPPRP | 0.197
RRIRVRPPRLPRPRPRPKFVPRP | 0.11
RRIRGRPPRLPRPRPRPGHYPRP | 0.00558
RRIRRRPPRLPRPRPRPDWTPRP | -0.133
RRIRWRPPRLPRPRPRPTRIPRP | 1.97
